One molecule from patent US8728472B2, “Antibodies that bind selectively to P25 and uses therefor” (The Board of Regents of the University of Texas System, priority 2009, dated 2014) can be followed below.

One experiment addresses T1, Cdk5/p25 (Homo sapiens, UniProt Q15078).
T1 construct: cleaves p35, thereby removing the first 100 amino acids to produce p25
The experiment can be described thus: Inhibition of Cdk5/p25 kinase activity by monoclonal antibody. It is filed as biochemical. As to conditions: FIG. 4.

Experiment [1] has as its target T2, p25 (Rattus norvegicus, UniProt P61810).
T2 construct: cleaves p35, thereby removing the first 100 amino acids to produce p25; expressed in transfected cells; host or cells: HEK293T; also purified Sf9 protein, p25-GFP transgenic mouse striatum, rat ischemic brain and neurons
Description: Immunoblotting and immunostaining for p25 (p25-GFP lysates, transfected HEK293T cells, ischemic tissue). The settings on record: compared with commercial p35/p25 Ab. Format: binding. From the text:
(§1) Cdk5/p25 proteins (FIG. 2A) were co-expressed in Sf9 insect cells from a Baculovirus vector (pBAC4X-1) encoding the genes for the human proteins. […] The proteins were absorbed to a Ni-NTA column, eluted and further purified by FPLC S-sepharose HP column chromatography. Mice received intrasplenic injections of pure Cdk5/p25 conjugated to biodegradable microparticles to optimize antigen presentation. ELISA assays were used to initially screen mice sera for antibody production using pure Cdk5/p25 followed by Western blotting of the pure Cdk5/p25 and striatal cell lysates from a p25 (p25-GFP) over-expressing mouse line (FIG. 2B). When both assays yielded positive results, a hemisplenectomy was performed and B cells were fused with SP2/0-IL6 myeloma cells to make hybridomas. Hybridoma culture supernatants were screened by ELISA, immunoblotting of pure protein (FIG. 2A), and immunohistochemical staining of HEK293T cultured cells transfected with Cdk5, p35, Cdk5/p35, p25, Cdk5/p25, or negative control (blank) eukaryotic expression plasmids (FIG. 2C). Hybridoma lines producing antibodies selective for p25 were re-derived and screens were repeated.
(§2) Abs to p35, DARPP-32 (Nishi et al., 1997), GFAP, and p25 were used to stain rat coronal cryosections (20 μm) from control and stroked hemispheres. […] See Methods for further details.
(In general: A western blot detects proteins with antibodies after separation by electrophoresis.)

Experiment [2] has as its system p25. The description is as above. Format: binding.
Description: as §1, §2

In a further experiment the test system is PKA. Description: Effect of monoclonal antibody on PKA activity. Format: biochemical. The settings on record: FIG. 4.
The target of another experiment is T3, p35 (Mus musculus, UniProt P61809).
T3 construct: from tissue; host or cells: striatal homogenates of p25-GFP over-expressing mice
Description: Immunoblotting and immunostaining for p35. Format: binding. The settings on record: immunoblot.
Description: as §1, §2

The mark [3] stands for this setting: listed as anti-p25 monoclonal antibody.

Entries after “also recorded” stand apart in the source; their conditions may differ.

T1 sequence (Q15078 99-307 limits assumed): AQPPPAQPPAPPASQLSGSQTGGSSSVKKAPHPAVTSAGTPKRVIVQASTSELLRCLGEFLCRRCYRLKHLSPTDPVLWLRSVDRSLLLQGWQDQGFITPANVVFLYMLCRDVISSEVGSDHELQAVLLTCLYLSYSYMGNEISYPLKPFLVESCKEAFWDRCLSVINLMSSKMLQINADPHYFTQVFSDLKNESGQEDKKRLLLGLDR
T2 sequence (P61810 99-307): as the sequence (Q15078 99-307 limits assumed) above, with G23V, V35I counted along it
T3 sequence (P61809 whole entry): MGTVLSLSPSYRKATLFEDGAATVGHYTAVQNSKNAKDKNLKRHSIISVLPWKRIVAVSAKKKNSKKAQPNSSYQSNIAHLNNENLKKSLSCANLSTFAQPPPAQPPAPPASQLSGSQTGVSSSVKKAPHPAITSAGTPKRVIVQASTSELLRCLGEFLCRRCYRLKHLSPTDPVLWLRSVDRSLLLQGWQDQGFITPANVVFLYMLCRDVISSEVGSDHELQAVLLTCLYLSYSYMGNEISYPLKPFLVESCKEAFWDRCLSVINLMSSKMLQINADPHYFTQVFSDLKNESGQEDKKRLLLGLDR

B1: 1C4: monoclonal antibody binding p25 but not p35, produced by hybridoma cell line 1C4 (ATCC PTA-8555) (antibody, V domains shown)
VH: QIQLEESGPELRKPGETVRISCKASGYTFTTAGMQWVQKMPGTGLKWIGWINTHSGVPKYAGEFTGRFDFSLETSASTAYLQIVNLKNEDTATYFCARYGKFGEMDYWGQGTSVTVSS
VL: IVMTQSPASLAVSLGQRATISCRSSETVDSDGNSFMHWYQQKPGQSPKLLLYLASTLESGVPARFSGSGSRTDFTLTIDPVEADDAATYYCHQNNEDPTFGGGTKLEIKR
Regarding B1, the “inhibition of Cdk5/p25 activity” value is “almost completely inhibits Cdk5 activity” with Cdk5/p25 and “inhibits Cdk5/p25 activity” with Cdk5/p25 (setting [3]). In addition, in the experiment with p25 [1], the “sensitivity of detection of p25 generated by MCAO” value is “greater sensitivity than a commercial p35/p25 Ab”. Further, in the experiment with p25 [2] (immunoblot of lysates from GFP-p25 over-expressing mice, focal ischemia in brain slices and cultured neurons, listed as anti-p25 monoclonal antibody), the “detection of p25” value is recorded as “detects transgenic p25-GFP; also recorded: strongly detects p25 generated in response to focal ischemia”. Further, the “staining of cells transfected with expression vectors” value in the experiment with p25 [2] (transfected cells, p25 vs p35 expression vector) is reported as “only stains cells transfected with an expression vector for p25 but not p35”. Besides, the entries for the “effect on PKA activity” value in the experiment with PKA and in the experiment with PKA (setting [3]) were “no effect on PKA” and “little or no effect on PKA activity”, respectively. The “reactivity with p35” value with p35 was “does not react with p35 at all”.
